The source of these data is patent US20070060521A1.

GST fusion protein containing the isolated SH2 domain of STAT3, sequence (P40763 580-670): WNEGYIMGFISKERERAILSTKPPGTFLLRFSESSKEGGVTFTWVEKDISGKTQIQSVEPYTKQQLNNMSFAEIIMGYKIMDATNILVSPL

The target in the first assay is GST-Stat3 fusion protein (full-length STAT3 fused to bacterial glutathione S-transferase). As to the kind of experiment: phage display panning on GST-Stat3, clones sequenced after selection.
GST-Stat3 fusion protein (full-length STAT3 fused to bacterial glutathione S-transferase), sequence (P40763 whole entry, the tested form may be a part): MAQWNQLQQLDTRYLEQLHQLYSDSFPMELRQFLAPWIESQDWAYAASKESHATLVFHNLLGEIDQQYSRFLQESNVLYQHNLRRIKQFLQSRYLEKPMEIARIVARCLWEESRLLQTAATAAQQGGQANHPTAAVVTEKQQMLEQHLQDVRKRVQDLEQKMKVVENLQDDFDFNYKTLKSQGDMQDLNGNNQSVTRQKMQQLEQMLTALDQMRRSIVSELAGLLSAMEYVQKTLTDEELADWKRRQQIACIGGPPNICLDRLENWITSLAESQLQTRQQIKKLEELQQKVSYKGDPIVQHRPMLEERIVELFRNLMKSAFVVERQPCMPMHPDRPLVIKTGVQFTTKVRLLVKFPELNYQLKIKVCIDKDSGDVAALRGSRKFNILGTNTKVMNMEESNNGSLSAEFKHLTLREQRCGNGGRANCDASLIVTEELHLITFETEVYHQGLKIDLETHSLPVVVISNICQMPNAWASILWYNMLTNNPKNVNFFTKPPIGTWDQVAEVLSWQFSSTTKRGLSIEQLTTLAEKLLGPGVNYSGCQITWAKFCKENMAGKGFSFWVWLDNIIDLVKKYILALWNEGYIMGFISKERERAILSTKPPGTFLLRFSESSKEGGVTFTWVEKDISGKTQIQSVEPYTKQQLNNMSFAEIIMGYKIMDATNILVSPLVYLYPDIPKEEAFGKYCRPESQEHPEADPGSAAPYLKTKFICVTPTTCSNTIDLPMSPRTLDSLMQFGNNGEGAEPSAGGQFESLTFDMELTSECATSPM
Turning to QDVHLTQQSRYTGGGS (peptide, not shown: large carriers) [… (SEQ ID NO:13)], the Frequency (out of 100 clones) was found to be 13%.

In turn, FSYPLTRAPLNMGGGS (peptide, not shown: large carriers) [… (SEQ ID NO:16)] registered a Frequency (out of 100 clones) of 8%.

In turn, YPAPQPLVTKTSGGGS (peptide, not shown: large carriers) [… (SEQ ID NO:15)] showed a Frequency (out of 100 clones) of 8%.

Regarding SHPWNAQRELSVGGGS (peptide, not shown: large carriers) [… (SEQ ID NO:14)], the Frequency (out of 100 clones) was 9%.

A further assay has as its target GST fusion protein containing the isolated SH2 domain of STAT3. As to the kind of experiment: phage display panning on the isolated SH2 domain of STAT3, clones sequenced after selection.
Turning to IQSPHFF (peptide, not shown: small tags and cut ends; large carriers) [IQSPHFF (SEQ ID NO:19)], the Frequency (out of 100 clones) is 6%.

Turning to ASTLPKA (peptide, not shown: small tags and cut ends; large carriers) [ASTLPKA (SEQ ID NO:18)], the Frequency (out of 100 clones) came to 7%.

In the case of HAIYPRN (peptide, not shown: small tags and cut ends; large carriers) [HAIYPRN (SEQ ID NO:17)], the Frequency (out of 100 clones) worked out at 16%.
